In the assay the target is T1, GST-tagged PKM2 (UniProt P14618 1-531).
T1 construct: Pyruvate kinase isoform M2 (PKM2); also called GST-PKM2; source: purified
In words: pull-down; GST-pull down in vitro using purified GST-tagged PKM2 and TIPE-HA. The conditions noted are these: both partners purified.

T1 sequence (P14618 whole entry, canonical isoform): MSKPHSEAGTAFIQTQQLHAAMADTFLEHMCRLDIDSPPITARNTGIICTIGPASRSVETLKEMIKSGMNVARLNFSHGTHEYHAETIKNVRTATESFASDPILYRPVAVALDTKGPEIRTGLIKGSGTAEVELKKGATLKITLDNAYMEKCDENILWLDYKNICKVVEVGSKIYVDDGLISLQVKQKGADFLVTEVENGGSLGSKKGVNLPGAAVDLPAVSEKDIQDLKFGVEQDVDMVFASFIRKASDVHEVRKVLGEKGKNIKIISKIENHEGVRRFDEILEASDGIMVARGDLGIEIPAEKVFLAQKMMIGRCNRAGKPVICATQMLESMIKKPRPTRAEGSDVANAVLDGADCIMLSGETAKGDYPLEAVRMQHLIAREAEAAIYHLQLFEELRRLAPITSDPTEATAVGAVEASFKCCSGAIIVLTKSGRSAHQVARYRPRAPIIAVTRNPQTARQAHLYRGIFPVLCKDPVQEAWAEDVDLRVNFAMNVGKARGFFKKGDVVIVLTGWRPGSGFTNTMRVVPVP

B1: TIPE-HA used in the GST-pull down assay (natural protein, UniProt O95379 1-198, looked up)
chain: MHSEAEESKEVATDVFNSKNLAVQAQKKILGKMVSKSIATTLIDDTSSEVLDELYRVTREYTQNKKEAEKIIKNLIKTVIKLAILYRNNQFNQDELALMEKFKKKVHQLAMTVVSFHQVDYTFDRNVLSRLLNECREMLHQIIQRHLTAKSHGRVNNVFDHFSDCEFLAALYNPFGNFKPHLQKLCDGINKMLDEENI
notes: TIPE (TNFAIP8); The legend says 'using purified GST-tagged PKM2 and TIPE-HA'; It may be the same construct as m3
As to B1, the binding result is on record as “binds”.
